The assay deals with T1, TRAF2 (untagged) (UniProt Q12933 1-501, limits assumed).
T1 construct: Negative control
T1 sequence (looked up): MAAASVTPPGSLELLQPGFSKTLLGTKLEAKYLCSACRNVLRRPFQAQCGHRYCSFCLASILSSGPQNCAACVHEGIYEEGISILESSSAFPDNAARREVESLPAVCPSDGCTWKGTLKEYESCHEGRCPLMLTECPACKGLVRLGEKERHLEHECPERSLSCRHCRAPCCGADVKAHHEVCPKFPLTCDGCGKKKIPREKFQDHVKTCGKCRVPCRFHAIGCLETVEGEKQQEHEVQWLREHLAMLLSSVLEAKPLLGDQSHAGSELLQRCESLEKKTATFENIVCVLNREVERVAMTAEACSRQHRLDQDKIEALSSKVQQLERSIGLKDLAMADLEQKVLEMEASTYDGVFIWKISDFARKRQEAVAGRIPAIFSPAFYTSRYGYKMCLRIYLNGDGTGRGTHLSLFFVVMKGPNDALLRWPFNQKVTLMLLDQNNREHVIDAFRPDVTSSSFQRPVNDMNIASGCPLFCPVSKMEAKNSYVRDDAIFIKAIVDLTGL
Nature of the assay: co-immunoprecipitation from transfected HEK293 cells (anti-FLAG beads, anti-TRAF2 immunoblot). How it is done:
Whole cell lysates were prepared 48 hrs after the transfection and were incubated with anti-FLAG conjugated beads (Sigma) overnight.

B1: FLAG-tagged human IRF4 (other, UniProt Q15306 1-451, looked up)
chain: MNLEGGGRGGEFGMSAVSCGNGKLRQWLIDQIDSGKYPGLVWENEEKSIFRIPWKHAGKQDYNREEDAALFKAWALFKGKFREGIDKPDPPTWKTRLRCALNKSNDFEELVERSQLDISDPYKVYRIVPEGAKKGAKQLTLEDPQMSMSHPYTMTTPYPSLPAQQVHNYMMPPLDRSWRDYVPDQPHPEIPYQCPMTFGPRGHHWQGPACENGCQVTGTFYACAPPESQAPGVPTEPSIRSAEALAFSDCRLHICLYYREILVKELTTSSPEGCRISHGHTYDASNLDQVLFPYPEDNGQRKNIEKLLSHLERGVVLWMAPDGLYAKRLCQSRIYWDGPLALCNDRPNKLERDQTCKLFDTQQFLSELQAFAHHGRSLPRFQVTLCFGEEFPDPQRQRKLITAHVEPLLARQLYYFAQQNSGHFLRGYDLPEHISNPEDYHRSIRHSSIQE
notes: Expressed by transfection in HEK293 cells; pulled down from whole cell lysates with anti-FLAG beads; it is entered under this molecule; also called IFN-regulatory factor 4; FLAG-tagged IRF4; not shown: FLAG tag
As to B1, the binding result was “no binding”.

The record behind these values is patent publication US20100292153A1 (US Dept. of Health and Human Services, published 2010).
